The values below come from PMC4822050, “Hemi-methylated DNA opens a closed conformation of UHRF1 to facilitate its histone recognition” (Nature Communications, 2016).

Numbering of substitutions follows the chain as printed. Numbers in names are those of the source.

The target in assay [1] is T1, Spacer (residues 587–674) of UHRF1 (Homo sapiens, UniProt Q96T88).
T1 construct: Spacer (residues 587–674); GST (N, cleaved yes); made in house; host or cells: E. coli BL21 (DE3)
T1 sequence (Q96T88 587-674): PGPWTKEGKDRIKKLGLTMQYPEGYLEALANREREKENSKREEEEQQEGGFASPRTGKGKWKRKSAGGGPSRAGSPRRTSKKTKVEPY
Nature of the assay: ITC, interaction of UHRF1 domains with the Spacer. Conditions: for N: ITC stoichiometry. It is filed as binding. As for the experimental part:
(§1) For competition ITC experiments: the indicated proteins were pre-incubated with competitive peptide, protein or hm-DNA (at 1:2 molar ratio if not specified) for 10 min followed by ITC measurements as described above. Proteins, DNA and peptides were prepared within ITC buffer containing 10 mM HEPES, pH 8.0, 100 mM NaCl. The data were fitted by software Origin 7.0. All ITC results were summarized in Supplementary Table 2 and raw data were shown in Supplementary Fig. 9.
In general terms: In ITC the heat of successive injections is recorded.

The target in assay [2] is T2, TTD (residues 134–285) of UHRF1 (Homo sapiens, UniProt Q96T88).
T2 construct: TTD (residues 134–285); GST (N, cleaved yes); made in house; host or cells: E. coli BL21 (DE3)
T2 sequence (Q96T88 134-285): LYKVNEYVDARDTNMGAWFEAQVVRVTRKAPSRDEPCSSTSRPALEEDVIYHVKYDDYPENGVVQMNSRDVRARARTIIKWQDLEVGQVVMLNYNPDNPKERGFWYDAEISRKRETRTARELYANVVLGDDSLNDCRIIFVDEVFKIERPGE
Nature of the assay: ITC, TTD titrated into Spacer variants and other UHRF1 fragments. The assay is classed as binding. The note with it: TTD in syringe; for N: ITC stoichiometry; for ΔH / ΔS: ITC. As for the experimental part:
as §1

The mark [3] stands for this setting: ITC, 18 °C, Spacer in syringe, named protein in cell, 10 mM HEPES pH 8.0, 100 mM NaCl.
Setting [4] is: ITC, Fig. 3e, wild-type or mutant TTD in syringe, Spacer in cell.

B1: TTD-PHDRR295,296DD: mutation R295D/R296D (within the Linker) of TTD–PHD (protein)
chain: LYKVNEYVDARDTNMGAWFEAQVVRVTRKAPSRDEPCSSTSRPALEEDVIYHVKYDDYPENGVVQMNSRDVRARARTIIKWQDLEVGQVVMLNYNPDNPKERGFWYDAEISRKRETRTARELYANVVLGDDSLNDCRIIFVDEVFKIERPGEGSPMVDNPMDDKSGPSCKHCKDDVNRLCRVCACHLCGGRQDPDKQLMCDECDMAFHIYCLDPPLSSVPSEDEWYCPECRND
modifications: left off: GST, end not stated, cleaved
notes: mutation R295D/R296D (within the Linker) of TTD–PHD
Usually Kd stands for the equilibrium constant for the complex coming apart. Higher therefore signals a looser complex. Regarding B1, the N in assay [1] (Spacer in syringe) worked out at 0.944±0.0158. This molecule showed a Kd in assay [1] (setting [3]) of 2690 nM. In assay [1] (ITC, Spacer in syringe), this molecule registered a ΔH of -1.399E4±290.7 cal/mol and a ΔS of -22.5 cal/mol/deg.

B2: SpacerK648D: mutation K648D of the Spacer (protein)
chain: T1 sequence (Q96T88 587-674) with K62D
modifications: left off: GST, end not stated, cleaved
notes: mutation K648D of the Spacer
In assay [2], B2 returned an N of 0.659±0.0209, a ΔH of -8.45 ± 0.3659 kcal/mol and a ΔS of -5.07 cal/mol/deg.

B3: SpacerS639D: mutation S639D of the Spacer, negative control (protein)
chain: T1 sequence (Q96T88 587-674) with S53D
modifications: left off: GST, end not stated, cleaved
notes: mutation S639D of the Spacer, negative control
Take B3: in assay [2], the N was 1.03±0.0102, the ΔH is recorded as -1.125E4±153.8 cal/mol and the ΔS is -11.4 cal/mol/deg.

B4: SpacerS666D: mutation S666D of the Spacer, negative control (protein)
chain: T1 sequence (Q96T88 587-674) with S80D
modifications: left off: GST, end not stated, cleaved
notes: mutation S666D of the Spacer, negative control
For the molecule B4, in assay [2], the N worked out at 1.08±0.0104, the ΔH is on record as -1.219E4±159.8 cal/mol and the ΔS is given as -14.9 cal/mol/deg.

B5: SpacerR649A: mutation R649A of the Spacer (protein)
chain: T1 sequence (Q96T88 587-674) with R63A
modifications: left off: GST, end not stated, cleaved
notes: mutation R649A of the Spacer
In assay [2], B5 had an N of 1.06±0.0256, a ΔH of -8.277 ± 0.352 kcal/mol and a ΔS of -7.04 cal/mol/deg.

B6: SpacerS651D: mutation S651D of the Spacer (protein)
chain: T1 sequence (Q96T88 587-674) with S65D
modifications: left off: GST, end not stated, cleaved
notes: mutation S651D of the Spacer
In assay [2], B6 came in with an N of 0.998±0.0189 and a ΔS of -19.3 cal/mol/deg.

B7: Spacer∆650-654: internal deletion of the Spacer, residues 650–654 (protein)
chain: PGPWTKEGKDRIKKLGLTMQYPEGYLEALANREREKENSKREEEEQQEGGFASPRTGKGKWKRGPSRAGSPRRTSKKTKVEPY
modifications: left off: GST, end not stated, cleaved
In assay [2], B7 gave an N of 0.967±0.0122, a ΔH of -6.475 ± 0.1071 kcal/mol and a ΔS of 2.57 cal/mol/deg.

B8: Spacer∆655-659: internal deletion of the Spacer, residues 655–659 (protein)
chain: B7 chain with G64K, P65S, S66A, R67G, A68G
modifications: left off: GST, end not stated, cleaved
In the case of B8, in assay [2], the N is 0.988±0.0147, the ΔH is -7.634 ± 0.1561 kcal/mol and the ΔS is given as -0.906 cal/mol/deg.

B9: Spacer∆660-664: internal deletion of the Spacer, residues 660–664 (protein)
chain: B7 chain with G64K, P65S, S66A, R67G, A68G, S70P, P71S, R73A
modifications: left off: GST, end not stated, cleaved
In assay [2], B9 registered an N of 1.01±0.00976 and a ΔS of -10.2 cal/mol/deg.

B10: Spacer ∆642-651: internal deletion of the Spacer, residues 642–651 (protein)
chain: PGPWTKEGKDRIKKLGLTMQYPEGYLEALANREREKENSKREEEEQQEGGFASPRAGGGPSRAGSPRRTSKKTKVEPY
modifications: left off: GST, end not stated, cleaved
In assay [2], B10 showed an N of 0.891±0.0733, a ΔH of -3.833 ± 0.4259 kcal/mol and a ΔS of 9.58 cal/mol/deg.

B11: TTD: tandem Tudor domain of human UHRF1 (residues 134–285) (protein, UniProt Q96T88 134-285, looked up, fragment)
chain: T2 sequence (Q96T88 134-285)
modifications: tandem Tudor domain
Regarding B11, the N in assay [1] (Spacer in syringe) was found to be 0.991±0.0134. Also, in assay [1] (setting [3]), binding was put at a Kd of 1480 nM. In assay [1] (setting [4]), this molecule gave a dissociation constant Kd of 1590 nM. For the same molecule, in assay [1] (ITC, Spacer in syringe), the ΔH is -1.614E4±297.4 cal/mol and the ΔS is listed as -28.7 cal/mol/deg. Also, the “interaction between the Spacer and the named protein in the presence of H3K9me3” value in assay [1] (ITC, molar ratio of TTD-PHD or TTD: H3K9me3=1:2) is on record as “No detectable interaction”.

B12: TTDD142A,E153A: mutation D142A/E153A of the TTD (protein)
chain: T2 sequence (Q96T88 134-285) with D9A, E20A
modifications: left off: GST, end not stated, cleaved
notes: mutation D142A/E153A of the TTD
In the case of B12, the KD entry in assay [1] (setting [4]) is “abolished”.

B13: Spacer∆665-669: internal deletion of the Spacer, residues 665–669 (protein)
chain: PGPWTKEGKDRIKKLGLTMQYPEGYLEALANREREKENSKREEEEQQEGGFASPRTGKGKWKRKSAGGGPSRAGSPRRKVEPY
modifications: left off: GST, end not stated, cleaved
As to B13, in assay [2], the N turned out to be 1.06±0.00978 and the ΔS is recorded as -12.9 cal/mol/deg.

B14: Spacer∆670-674: deletion of the Spacer, residues 670–674 (protein)
chain: B13 chain with K79T, V80S, E81K, P82K, Y83T
modifications: left off: GST, end not stated, cleaved
In assay [2], B14 registered an N of 1.1±0.0102 and a ΔS of -9.46 cal/mol/deg.
